Data as given in the nanobody polyreactivity screen of Harvey et al. (2022).

Assay: yeast display, Sf9 membrane polyspecificity reagent, FACS + sequencing; frameworks hold sequencing errors
Procedure, shortened: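 Galactose-induced (36–48 hours) yeast carrying a synthetic nanobody display library were exposed to 10% biotinylated, detergent-solubilized Sf9 membrane reagent at 4 °C for 1 hour. FACS followed streptavidin microbead enrichment, using low and high (top ~1%) gates for expression (anti-HA) and reagent binding (streptavidin). Colony PCR, MiSeq 2 × 250 sequencing and CDR-length filtering followed. Labels for polyreactivity reflect the gate of origin.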

Sequence | polyreactivity (PSR sort gate)
QVQLVESGGGLVQAGGSLRLSCAASGFTFRYYAMGWYRQAPGKERELVATITGYGGSTYYADSVKGRFTISRDNAKNTVYLQMNSLKPEDTAVYYCNTVWYTDVRYTRFYYWGQGTQVTVSS | high polyreactivity
QVQLVESGGGLVQAGGSLRLSCAASGRTFHSYAMGWYRQAPGKERELVAAITSSGGSTYYADSVKGRFTISRDNAKNTVYLQMNSLKPEDTAVYYGNAYVRYGYGYYYWGQGTQVTVSS | high polyreactivity
QVQLVQSRRGLVQAGCSLRLSCAASGRTFVIYAMGWYRQAPGKERELVAAISKGGGSTYYADSVKGRFTISRDNAKNTVYLQMNSLKPEDTAVYYCAVEASRAGAWYEYWGQGTQVTVSS | high polyreactivity
QVQLVESGGCLVQAGGSLRLSCAAYGSIFGGNAMGWYRQAPRKERELVAAITQSGDRTYYADSVKGRFTISRDNANNTFYFQMNSLKPEDTAVYYSAARSPRKYGSIGYYWGQGTQVTVSS | high polyreactivity
QVQLVESGGGLVQAGGSLRLSCAASGIIFVKYARGWSRQAPGKERELVAAITSGGSTYYADSVKGRFTISRDNAKNTVYLQTNSLKPEDTAVYYCNARRNQYLAQYDYWGQGTQVTVSS | high polyreactivity
QVQLVESGGGLVQAGGSLRLSCAAYGIIFNSYFMGWYRPAPGKERELVAAITGSCGRTYYADSVKGRFTISRDNAKNTVYLQIISLKPEDTAVYYCSATNRGQVYGAWYNSWGQGTQVTVSS | high polyreactivity
QVQLEESGGGLVQAGGSLRLSCAASGSIFDVYAIGWYRQAPGKERELVAGINSAGSTYYADSVKGRFTISRDNAKNTVYLQMNSLKPEDSAVYYCAAREYILTPGYQWYTYRGYDYWGQGTQVTVSS | low polyreactivity
QVQLVESGGGLVQAGGSLRLSCAASGRTFGFYGMGWYRQAPGKEREFVAAITRRGGSTYYADSVKGRFTISRDNAKNTVYLQMNRLKPEDTAVYYCAAGYSSRYRGGLDYWGQGTQVTVSS | high polyreactivity
QVQLVESGGGLVQAGGSLRLSCAASGFTFQAYAMGWYRQAPGKVRELVAAINFSTGRTYYADSVKGRFTISRDNAKNTVYLQMNSLKPEDTAVYYCAADGSWTRSYDFDYWGQGTQVTVSS | high polyreactivity
QVQLVESGGGLVQAGGSLRLSCAASGIIFYYNAMGWYRQAPGKERELVAAISSSGGSTSYADSVKGRFTISRDNAKNTVYLQMNSLKPEDTAVYYCAADSSPAYLGFVGFDYWGQGTQVTVSS | low polyreactivity
QVQLVESGGGLVQAGGSLRLSCAASGRTFLAMGWYRQAPGKERELVAAISRTNYADSVKGRFTISRDNAKNTVYLQMNSLKPEDTAVYYCAKEYYSYEVYLGLSYVRRYDYWGQGTQVTVSS | low polyreactivity
QVQLVESGGGLVQAGGSLRLSCAASGSIFYPYAMGWYRQAPGKERELVAAIRNGGSTYYADSVKGRFTISRDNAKNTVYLQMNSLKPEDTAVYYCAASVRRRHPFEYWGQGTQVTVSS | high polyreactivity
QVQLVESGEGLVQAGGSLRLSCAASGSIFTYNAMGWYRQAPGKERELVAAISRGGSTYYADSVKGRFSISRDNAKNTVNLQMNSLIPEDTAVYYCNARRYRHDGYWGQGTQVTVSS | high polyreactivity
QVQLVETGGGLVQAGGSLRLSCAASGRIFKVYAMGWYRQAPGKERELDAAITSRGGSTYYADSVKGRFTISRDNAKNTVYLQMNSLKPEDTAVYYCAAARGLPSNKYYYWGQGTQVTVSS | high polyreactivity
QVQLVESGGGLVQAGGSLRLSCAASGIIFRKYAMGRYRQAPGKERELVAAISSSGGSTYYADSVKGRFTISRDNAKNTVYLQMNSLKPEDTAVYYCAAERQVTNKIFNYWGQGTQVTVSS | high polyreactivity
QVQLVESGGGLVQAGGSLRLSCAASGSIFDYNAMGWYRQAPGKEREFVAAISSSAGSTYYADSVKGRFTISRDNAKNTVYLEMNSLKPEDTAVYYCAADWYDFSFPYYEYEYWGQGTQVTVSS | low polyreactivity
QVQLVESGGGLVQAGGSLRLSCAASRRTFSQYAMGWYRQAHGKERELVAAITSARSTYYADSVKGRFTISRDNAKNTVYLQMNSLKPEDTAVYYCAAYIRFRSNWGQGTQVTVSS | high polyreactivity
QVHLVESGGGLVQAGGSLRLSCAASGNIFTINAMGWYRQAPGKERDLVARITWGGGNTFYADSVKGRFTISRDNAKNTVYLEMNSLKPEDTAVYYCNAVGPYDYRYGKYDYWGQGTQVTVSS | low polyreactivity
QVQLVETGGGLVQAGGSLRLSCDASGRIIRWYALGWYRQAPGKERELDAAITRSGSTFYADSVKWRFTISRDNAKNTVYLQMNSLKREDTADYYCNTCRWLYDTRYQFDEFDYWGQGTQVTVSS | high polyreactivity
QVQLVESGGGLVQAGGSLRLSCAASGSIIGVNAMGWYRQAPGKERELVAAISSTGGSTYYADSVKGRFTISRDNAKNTVYLQMNSLKPEDTAVYYCNTDYSKSIGDGYAGFDYWGQGTQVTVSS | low polyreactivity
QVQLVESGGGLVQAGGSLRLSCAASGSTFEVYAMGWYRQAPGTERELVAVITNSGTSTNYADSVKGRFTISRDNAKNTVYLQMTSLKPEDTAVYYCAADVEWTSRGSYYRYYYWGQGTQVTVSS | low polyreactivity
QVQLVESGGGVVQAGGSLRLSCAASGYIFFANAMGWYRQAPGKERELVAAISSDGRTYYADSVKGRFTISRDNANNTVYLQMNSLKPEDTAVYYSADYFSGLTYGYYVAGYDYWGQGTQVTVSS | low polyreactivity

Sequence | polyreactivity (PSR sort gate)
QVQLVESGGGLVQAGGSLRLSCAASGSTFRKYAMGWYRQAPGKEREFVAAITWSTGTTYYADSVKGRFTISRDNAKNTVYLQMNSLIPEDTAVYYCAADSQPPHELYESIEHESWGQGTQVTVSS | low polyreactivity
QVQLVESGGGLVQAGGSLRLSCAASGSIFATYAMGWYIQAPGKERELVASITTDGSTHYADSVKGRFTISRDNAKNTVYLQMNSLKPEDTAVYYCNTETGPSPVPVYDTEFDSWGQGTQVTVSS | low polyreactivity
QVQLVESGGGLVQAGGSLRLSCAASGRSFNYNTMGWYRQAPGKERELVAAINKGGTRTYYADSVKGRFTISRDNAKNTVYLQMNSLKPEDTAVYYCAARLYSYDYWGQGTQVTVSS | high polyreactivity
QVQLVESGGRLVQAGGSLRLSCAASGRTFSNAIGWDRQAPGKEREEVADISSGGSTNYADSVKGRFTISRDNAKNTVYLQMNSLKPEDTAVYYCAAVSGSLYGYSDDYWGQGTQVTVSS | low polyreactivity
QVQLVESGGGLVQAGGSLRLSCAASGLIFGVNAMGWYRQAPGKERELVAGISGSTGSTYYADSVKGRFTISRDNAKNTLYVQMNSLKPEDSAVYYCAKRSRRRGYRYDYWGQGTQVTVSS | high polyreactivity
QVQIVESGGGLVQAGGSLRLSCAASGRIFAYNAMGWYRQAPGKERELVVAISWTGGRTSYADSVKGRFTISCDNAKNTVYLQMNSLKPEDTAVYYCNARYRYRLRGYDYWGQGTQVTVSS | high polyreactivity
QVQLVESGGGLVQAGGSLRLSCAASGLTFNVYAMGWYRQAPGKERELVASITKRGGSTYYADSVKGRFTISRDNAKNTVYLEMNSLKPEDTAVYYCAADGLTGSKYRATGYYWGQGTQVTVSS | high polyreactivity
QVQLVESGGGLVHAGGSLRLSCAASGSTFYYNAMGWYRQAPGKERELVAAITKSGDDTYYADSEKGRFTISRDNATNTVYLQMNSLKPEDTAVSYCAAYLSWYDYWGQGTQVTVSS | low polyreactivity
QVQLVESGGGLVQAGGSLRLSCAASGITFWSNAMGWYRQAPGKERELVAAITSSGGSTYYADSVKGRFTISRDNAKNTVYLQMNSLKPEDTAVYYCAAPISRSAGWDSYDYWGQGTQVTVSS | low polyreactivity
QVQLVESGGGLVQAGGSLRLSCAASGRTFYWYTMGWYRQATGKERELVAAISIGGITSYADSVKGRFTISRDNAKNTVYLQMNSLKPEDTAVYYCAAPLSYKNVKYDYWGQGTQVTVSS | low polyreactivity
QVQLVESGGGLVQAGGSLRLSCAASGFIFDSNAMGWYRQAPGKERELVAAISRRGGSTYYADSVKGRFTISRDNAKNTVYLQMNSLKPEDTAVYYCNAEYGSHVKYGYWGQGTQVTVSS | high polyreactivity
QVQLVESGGGLVQAGGSLRLSCAASGRTFYYYAMGWYRQAPGKERELVAAISKSGGSTYYADSVKGRFTISRDNAKNTVYLQMNSLKPEDTAVYYCAALTTHAPHSYNYWGQGTQVTVSS | low polyreactivity
QVQLVESGGGLVQAGGSLRLSCAASGRTFAIYAMGWYRQAPGKEREFVAAISWSGCSTYADSVKGRFTISRDNAKNTVYLQMNSLKPEDTAVYYCAKTILYDCDYWGQGTQVTVSS | low polyreactivity
QVQLVESGGGLLQAGGSLRLSCAASGSIFSRYVMGWYRQAPGKERELVAGISGSGGSTYYADSVKGRFTISRDNAKNTVYLQMNSLKPEDTAVYYCNAATSRLYYNHYTRYNYWGQGTQVTVSS | high polyreactivity
QVQLVESGGGLVQAGGSLRLSCAASGSTFRYNAMGWYRQAPGKERELVAGISYRGGTTYYADSVKGRFTISRDNAKNTVYLQMNSLKPEDTAVYYCAADSRAKRYYWGQGTQVTVSS | high polyreactivity
QVQLVESGGGLVQAGGSLRLSCAASGYTFAGNAMGWYRQAPGKERELVAAISRSGGRTYYADSVKGRFTISRDNAKNTVYLQMNSLKPEDTAVYYCAAYGYKYDYWGQGTQVTVSS | high polyreactivity
QVQLVESGGGLVQAGGSLRLSCAASGIIFAANAMGWYRQAPGKERELVAAISKNGGITYYADSVKGRFTISRDTAKNTVYLQMNSLKPEDTAVYYCAARWRQTRRYYYWGQGTQVTVSS | high polyreactivity
QVQLVESGGGLVQAGGSIRLSCAASGRTFARNAMGWYRKAPGKERELVAAISSSGGSTYYADSVKGRFTISRDNAKNTVYLQMNSLKPEDTAVYYCARYSSFTYDYWGQGTQVTVSS | high polyreactivity
QVQLVESGGGLVQAGGSLRLSCAASGSIFFYYAMGWYRQAPGKERELVAAIRSGTSTNYADSVKGRFTISRDNAKNTVYLQMNSLKPEDTAVYYCAARFPGGGYGMDYWGQGTQVTVSS | low polyreactivity
QVQLVESGGGLVQAGGSLRLSCAASGFTSAYNAMGWYRQAPGKERELVATISFRGSSTYYADSVKGRFTISRDNAKNTVYLQMNSQKPEDTAVYYCAADPYDARAVSEPVFFGHYDFWGQGTQVTVSS | low polyreactivity
QVQLVESGGGLVQAGGSLRLSCAASGSTFYTYTMGWYRQAPGKERELVAAITWSGGSTYYADSVKGRFTISRDNAKNTVYLQMNSLKPEDTAVYYCNADQDYQGARPSGMDYWGQGTQVTVSS | low polyreactivity
